Our source for the binding signal values is article PMC7069974.

The data set addresses His-flXPA (human) (UniProt P23025). Description: AFM. The following applies: single dG-C8-AAF at 30% from 3' end; EMSA: 8 nM DNA, 20 mM HEPES pH 7.5, 150 mM NaCl, 5 mM DTT, 0.5 mg/ml BSA, 5% glycerol, 25 min at room temperature; gel 5% native, 0.5x TBE, 4 C. AFM: 100 nM …; scale: fold specificity for dG-C8-AAF over non-damaged DNA. A general note: Mobility shift assays separate free from complexed probe on a gel.

His-flXPA (human), sequence (P23025 whole entry): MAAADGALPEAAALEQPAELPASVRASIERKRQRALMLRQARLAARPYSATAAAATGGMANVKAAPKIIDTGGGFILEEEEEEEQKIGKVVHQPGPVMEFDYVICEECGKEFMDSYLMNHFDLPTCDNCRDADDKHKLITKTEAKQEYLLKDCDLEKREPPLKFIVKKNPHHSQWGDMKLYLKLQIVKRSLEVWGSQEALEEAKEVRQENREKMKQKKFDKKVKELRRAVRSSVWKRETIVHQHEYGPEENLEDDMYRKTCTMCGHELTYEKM

With AAF538, the binding signal is 660.
